Measurements as given in paper PMC3969726.
One block for each substance: values may come before it.

Key:
[1] = target: Bfr ArdA (ArdA protein from Bacteroides fragilis NCTC 9343, Orf BF1222) (Bacteroides fragilis NCTC 9343); assay: SEC; Biosep-SEC-S3000 column; 20 mM Tris-HCl, 20 mM MES, 200 mM NaCl, 10 mM MgCl2, 0.1 mM EDTA, 7 mM 2-mercaptoethanol, pH 6.5; 25 °C; apparent molecular mass against injected monomer concentration, fitted to a monomer-dimer equilibrium; apparent constants; dimer to monomers
[2] = target: Ocr (Escherichia phage T7) (UniProt P03775); settings: cited from earlier work
[3] = target: Mu50 ArdA (ArdA protein from Staphylococcus aureus Mu50, Orf SAV0405) (Staphylococcus aureus Mu50); assay: SEC; Biosep-SEC-S3000 column; 20 mM Tris-HCl, 20 mM MES, 200 mM NaCl, 10 mM MgCl2, 0.1 mM EDTA, 7 mM 2-mercaptoethanol, pH 6.5; 25 °C; apparent molecular mass against injected monomer concentration, fitted to a monomer-dimer equilibrium; apparent constants; dimer to monomers
[4] = target: Orf18 ArdA protein expressed by the conjugative transposon Tn916 (conjugative transposon Tn916); assay: as above

Kd [1]: 360 nM
Substance: Bfr ArdA (ArdA protein from Bacteroides fragilis NCTC 9343, Orf BF1222) (natural protein)

Substance: EcoKI MTase (from UniProt P08957)
Kd [2]: 0.05 nM

Kd [3]: 3180 nM
Substance: Mu50 ArdA (ArdA protein from Staphylococcus aureus Mu50, Orf SAV0405) (natural protein)

Substance: Orf18 ArdA protein expressed by the conjugative transposon Tn916 (natural protein)
Kd [4]: 2200 nM
